T1: IFN-γ (human, UniProt P01579 24-166, limits assumed)
T1 sequence (looked up): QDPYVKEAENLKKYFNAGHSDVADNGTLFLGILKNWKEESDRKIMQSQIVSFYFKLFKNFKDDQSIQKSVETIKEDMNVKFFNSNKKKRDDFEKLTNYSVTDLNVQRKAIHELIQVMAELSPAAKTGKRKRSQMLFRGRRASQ


biological target: T1, IFN-γ; assay: cell-based or functional assay

| IC50, A549 cell proliferation assay (ALAMARBLUE); sample stored 3 months at pH 5, 4° C. | IC50, A549 cell proliferation assay (ALAMARBLUE); sample stored 3 months at pH 5, 37° C. | Binder |
| --- | --- | --- |
| 0.0023 µg/mL | 0.0027 µg/mL | full length human IgG1 antibody against human IFN-γ, filtered purified bulk (FPB) (antibody, V domains shown, N-glycan sites at amino acids 28 and 297 of SEQ ID NO:17 (VH and CH2); heterogeneously sialylated) VH: EVQLVQSGAEVKKPGESLKISCKGSGYNFTSYWIGWVRQMPGKGLELMGIIYPGDSDTRYSPSFQGQVTISADKSISTAYLQWSSLKASDTAMYYCGSGSYFYFDLWGRGTLVTVSS VL: EIVLTQSPGTLSLSPGERATLSCRASQSVSSSYLAWYQQKPGQAPRLLIYGASSRATGIPDRFSGSGSGTDFTLTISRLEPEDFAVYYCQRSGGSSFTFGPGTKVDIKR |
| 0.0018 µg/mL | 0.0028 µg/mL | full length human IgG1 antibody against human IFN-γ, purified isoform Peak +1 (antibody, V domains shown, N-glycan sites at amino acids 28 and 297 of SEQ ID NO:17 (VH and CH2); sialylation isoform Peak +1) VH: EVQLVQSGAEVKKPGESLKISCKGSGYNFTSYWIGWVRQMPGKGLELMGIIYPGDSDTRYSPSFQGQVTISADKSISTAYLQWSSLKASDTAMYYCGSGSYFYFDLWGRGTLVTVSS VL: EIVLTQSPGTLSLSPGERATLSCRASQSVSSSYLAWYQQKPGQAPRLLIYGASSRATGIPDRFSGSGSGTDFTLTISRLEPEDFAVYYCQRSGGSSFTFGPGTKVDIKR |
| 0.003 µg/mL | 0.0033 µg/mL | full length human IgG1 antibody against human IFN-γ, purified isoform Peak -1 (antibody, V domains shown, N-glycan sites at amino acids 28 and 297 of SEQ ID NO:17 (VH and CH2); sialylation isoform Peak -1) VH: EVQLVQSGAEVKKPGESLKISCKGSGYNFTSYWIGWVRQMPGKGLELMGIIYPGDSDTRYSPSFQGQVTISADKSISTAYLQWSSLKASDTAMYYCGSGSYFYFDLWGRGTLVTVSS VL: EIVLTQSPGTLSLSPGERATLSCRASQSVSSSYLAWYQQKPGQAPRLLIYGASSRATGIPDRFSGSGSGTDFTLTISRLEPEDFAVYYCQRSGGSSFTFGPGTKVDIKR |
| 0.0024 µg/mL | 0.0033 µg/mL | full length human IgG1 antibody against human IFN-γ, purified isoform Peak 0 (antibody, V domains shown, N-glycan sites at amino acids 28 and 297 of SEQ ID NO:17 (VH and CH2); sialylation isoform Peak 0) VH: EVQLVQSGAEVKKPGESLKISCKGSGYNFTSYWIGWVRQMPGKGLELMGIIYPGDSDTRYSPSFQGQVTISADKSISTAYLQWSSLKASDTAMYYCGSGSYFYFDLWGRGTLVTVSS VL: EIVLTQSPGTLSLSPGERATLSCRASQSVSSSYLAWYQQKPGQAPRLLIYGASSRATGIPDRFSGSGSGTDFTLTISRLEPEDFAVYYCQRSGGSSFTFGPGTKVDIKR |
| 0.0037 µg/mL | 0.0038 µg/mL | full length human IgG1 antibody against human IFN-γ, purified isoform Peak -2 (antibody, V domains shown, N-glycan sites at amino acids 28 and 297 of SEQ ID NO:17 (VH and CH2); sialylation isoform Peak -2) VH: EVQLVQSGAEVKKPGESLKISCKGSGYNFTSYWIGWVRQMPGKGLELMGIIYPGDSDTRYSPSFQGQVTISADKSISTAYLQWSSLKASDTAMYYCGSGSYFYFDLWGRGTLVTVSS VL: EIVLTQSPGTLSLSPGERATLSCRASQSVSSSYLAWYQQKPGQAPRLLIYGASSRATGIPDRFSGSGSGTDFTLTISRLEPEDFAVYYCQRSGGSSFTFGPGTKVDIKR |
| 0.002 µg/mL | 0.0032 µg/mL | full length human IgG1 antibody against human IFN-γ, purified isoform Peak +2 (antibody, V domains shown, N-glycan sites at amino acids 28 and 297 of SEQ ID NO:17 (VH and CH2); sialylation isoform Peak +2) VH: EVQLVQSGAEVKKPGESLKISCKGSGYNFTSYWIGWVRQMPGKGLELMGIIYPGDSDTRYSPSFQGQVTISADKSISTAYLQWSSLKASDTAMYYCGSGSYFYFDLWGRGTLVTVSS VL: EIVLTQSPGTLSLSPGERATLSCRASQSVSSSYLAWYQQKPGQAPRLLIYGASSRATGIPDRFSGSGSGTDFTLTISRLEPEDFAVYYCQRSGGSSFTFGPGTKVDIKR |

Reference: patent US20060269543A1 (Amgen, published 2006)
